{"source": "patent US20230265183A1", "about": "(MABWELL SHANGHAI BIOSCIENCE, published 2023)", "binders": {"B1": {"name": "42D20 hz10 (antibody, V domains shown)", "VH": "QVQLQESGPGLVKPSETLSLTCTVSGFSLIDYGVSWIRQPPGKGLEWIGVIWGDGKIYYNSVLKSRVTISKDNSKSQVSLKLSSVTAADTAVYYCAKQGGLLFYAMDYWGQGTLVTVSS", "VL": "DIVMTQSPDSLAVSLGERATINCKSSQSLLNSYSQKNYLAWYQQKPGQPPKLLIYFASTRESGVPDRFSGSGSGTDFTLTISSLQAEDVAVYYCQQHYNTPFTFGAGTKLELKR", "notes": "Humanized"}}, "target": "T1, His-tagged human NECTIN4 (human, UniProt Q96NY8 32-349)", "T1 construct": "Antigen of the BIAcore assay; also called antigen; recombinant NECTIN4 protein; not shown: His tag", "T1 sequence": "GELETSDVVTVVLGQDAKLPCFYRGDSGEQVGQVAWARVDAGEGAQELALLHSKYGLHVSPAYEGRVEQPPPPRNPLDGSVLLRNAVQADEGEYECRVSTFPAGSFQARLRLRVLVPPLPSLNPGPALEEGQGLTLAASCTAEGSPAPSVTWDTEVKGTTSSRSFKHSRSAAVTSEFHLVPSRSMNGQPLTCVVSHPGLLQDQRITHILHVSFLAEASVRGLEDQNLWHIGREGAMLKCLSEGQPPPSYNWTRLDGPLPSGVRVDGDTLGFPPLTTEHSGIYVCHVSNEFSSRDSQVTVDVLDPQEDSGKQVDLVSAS", "assay": "ELISA, antibody without cyno serum, plate coated with 0.2 µg/ml antigen, HRP goat anti-human IgG, OD450. The sheet does not say which of the two plates of Example 13 is drawn", "data": [{"binder": "B1", "values": [{"measurement": "EC50 (read off the curve)", "value": "~0.1", "unit": "µg/mL"}]}]}
